The source of these data is patent publication US20110263824A1.

In assay [1] the target is human serum protein. The assay is described as follows: summary of Example 1-9: adsorption to human serum protein-immobilized magnetic beads.
Assay [2] concerns the target human serum protein. In words: adsorption to human serum protein-immobilized magnetic beads, western blot quantification.
Assay [3] concerns the target human serum protein. In words: adsorption of TM2 variant to human serum protein-immobilized magnetic beads, western blot quantification.
Assay [4] deals with human serum protein. In words: adsorption of TM2 to human serum protein-immobilized magnetic beads, western blot quantification (reference).
For assay [5], the target named is human serum protein. In words: human serum (1:800) adsorbed to TM2-immobilized magnetic beads, HRP-labeled anti-human IgG detection.
The target in assay [6] is human serum protein. In words: human serum (1:800) adsorbed to TM2 variant-immobilized magnetic beads, HRP-labeled anti-human IgG detection.

B1: TM2 K26A (protein)
chain: MSDVQSSLTGTWYNELNSKMELTANADGTLTGKYLSKVGDVYVPYPLSGRYNLQPPAGQGVALGWAVSWENSKIHSATTWSGQFFSESSPVILTQWLLSSSTARGDVWESTLVGNDSFTKTAPTEQQIAHAQLHCRAPRLK
In the assay with human serum protein [1], B1 displayed a non-specific binding and adsorption relative to wild type TM2 (% of wild type TM2) of 60. The molecule also yielded a decrease of adsorption to human serum protein compared to the wild type TM2 in the assay with human serum protein [2] of 30%. The molecule also had a Non-specific binding of serum protein (%) (% of wild type TM2) with human serum protein [3] of 68.

B2: TM2 K141E (protein)
chain: MSDVQSSLTGTWYNELNSKMELTANKDGTLTGKYLSKVGDVYVPYPLSGRYNLQPPAGQGVALGWAVSWENSKIHSATTWSGQFFSESSPVILTQWLLSSSTARGDVWESTLVGNDSFTKTAPTEQQIAHAQLHCRAPRLE
In the assay with human serum protein [1], B2 yielded a non-specific binding and adsorption relative to wild type TM2 (% of wild type TM2) of 60. The molecule also registered a decrease of adsorption to human serum protein compared to the wild type TM2 with human serum protein [2] of 40%. Further, the Non-specific binding of serum protein (%) (% of wild type TM2) in the assay with human serum protein [3] came out at 58.

B3: tamavidin 2 (wild type) (protein)
chain: MSDVQSSLTGTWYNELNSKMELTANKDGTLTGKYLSKVGDVYVPYPLSGRYNLQPPAGQGVALGWAVSWENSKIHSATTWSGQFFSESSPVILTQWLLSSSTARGDVWESTLVGNDSFTKTAPTEQQIAHAQLHCRAPRLK
B3 showed a Non-specific binding of serum protein (%) (% of wild type TM2) with human serum protein [4] of 100. This molecule also had a Non-specific binding to serum protein (A450) with human serum protein [5] of 0.67 A450.

B4: TM2 K73Q (protein)
chain: MSDVQSSLTGTWYNELNSKMELTANKDGTLTGKYLSKVGDVYVPYPLSGRYNLQPPAGQGVALGWAVSWENSQIHSATTWSGQFFSESSPVILTQWLLSSSTARGDVWESTLVGNDSFTKTAPTEQQIAHAQLHCRAPRLK
For B4, in the assay with human serum protein [1], the non-specific binding and adsorption relative to wild type TM2 (% of wild type TM2) was determined as 60. Further, the decrease of adsorption to human serum protein compared to the wild type TM2 with human serum protein [2] stood at 40%. This molecule gave a Non-specific binding of serum protein (%) (% of wild type TM2) with human serum protein [3] of 55.

B5: TM2 D40NR104EK141E (protein)
chain: MSDVQSSLTGTWYNELNSKMELTANKDGTLTGKYLSKVGNVYVPYPLSGRYNLQPPAGQGVALGWAVSWENSKIHSATTWSGQFFSESSPVILTQWLLSSSTAEGDVWESTLVGNDSFTKTAPTEQQIAHAQLHCRAPRLE
For the molecule B5, in the assay with human serum protein [6], the Non-specific binding to serum protein (A450) was found to be 0.45 A450.

B6: TM2 R104E (protein)
chain: MSDVQSSLTGTWYNELNSKMELTANKDGTLTGKYLSKVGDVYVPYPLSGRYNLQPPAGQGVALGWAVSWENSKIHSATTWSGQFFSESSPVILTQWLLSSSTAEGDVWESTLVGNDSFTKTAPTEQQIAHAQLHCRAPRLK
For B6, the decrease of adsorption to human serum protein compared to the wild type TM2 in the assay with human serum protein [2] was found to be 10%. For the same molecule, the Non-specific binding of serum protein (%) (% of wild type TM2) in the assay with human serum protein [3] was 90.

B7: TM2 R104EK141E (protein)
chain: MSDVQSSLTGTWYNELNSKMELTANKDGTLTGKYLSKVGDVYVPYPLSGRYNLQPPAGQGVALGWAVSWENSKIHSATTWSGQFFSESSPVILTQWLLSSSTAEGDVWESTLVGNDSFTKTAPTEQQIAHAQLHCRAPRLE
In the assay with human serum protein [1], B7 came in with a non-specific binding and adsorption relative to wild type TM2 (% of wild type TM2) of 20. In the assay with human serum protein [2], this molecule showed a decrease of adsorption to human serum protein compared to the wild type TM2 of 70%. In addition, the Non-specific binding of serum protein (%) (% of wild type TM2) in the assay with human serum protein [3] stood at 25.
